Reference: the RNAGym collection of RNA variant scans (doi:10.1073/pnas.2313332121)

B1: TPR t1 (parent)
chain: GACCAAUCUGCCCUCAGAGCUCGAGAACAUCUUCGGAUGCAGAGGAGGCAGGCUUCGGUGGCGCGAUAGCGCCAACGUCCUCAACCUCCAAUGCAUCCCACCACAUGAUGAUGCCUGAAGAGCCUUGGUUUUUUG

Variants of: B1
Assay: polymerase ribozyme fitness, log enrichment relative to wild type (log ratio); higher = more active; in vitro selection for triplet polymerase activity
Outline: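 Mutant libraries were PCR-built and transcribed for each subunit of a heterodimeric triplet polymerase ribozyme and selected for one round in triplicate at −7 °C, frozen, before gel excision of extended constructs and streptavidin-bead capture. Input and output libraries were Illumina-sequenced, keeping genotypes with ≥10 input reads and ≥1 read per output. Fitness is a logarithmic ratio of genotype to wild-type enrichment, in base 2, using inverse-variance-weighted replicate averages.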

Variant	polymerase ribozyme fitness (log ratio)
G10C G61U C114U	-1.8
C53U C70U A74G G113C U133A	-2.94
G36A G45U G61C	-3.57
C13U A16C U106G	-2.43
C8U U106A G127U	0.137
C79A G117U G120C	-3.42
A43U G45A G58C G69U	0.218
G60C G117U	-3.4
A2C C101A	-2.7
G48U A66G C86A U125G G127C	-3.31
C124A	1.78
G120A G122C	-0.571
G71C U112G	-1.66
A41U G42C G60U	-2.24
G42U A46U	-1.99
C8U A68G A111C	-3.15
A46G G60U C94U	-1.81
C89U G113C G120C	-3.26
C15U C53U C97U	-1.96
C8G G19U C94U	-2.66
U7A C12G A18G G44A G52U	-5.51
G71A C104A U129A	-4.5
C98G C115A	-5.15
A6U C12U	-0.0768

Variant	polymerase ribozyme fitness (log ratio)
C62A U96A U112C	-0.2
C82A C88A G113A	-1.71
A95C C123G	-0.428
G42A G135U	-2.72
U87C C104U	0.232
A46C U112A	0.587
G45U G60C U78G	-3.53
G44A C82U C101G	-2.82
G63C G65A	-5.84
A24U G52U U55C C64A C82A C86G C99A G110A A119G	-7.53
C40G C85A	-2.32
C53G A83C	-1.33
G10A A29G	-2.58
G36A G52A A66G C79G	-2.84
U59G G120U C124U	1.23
A6C G61A U92A	-3.09
C28G G69U	-0.552
U54A C73A C79A G107C A119G	-6.96
C53G C70G C115G	-3.49
C64U U96A	-1.23
A66U C115U	-3.52
C53A C89U C115A	-0.188
A16U A105C G120U	-3.61
A18U C115U	-2.09

Variant	polymerase ribozyme fitness (log ratio)
G69A G113U	-5.37
U9A C62G C79G C115U	-4.57
C70A A83U	-2.44
C97U G120U	-0.768
C12A U21C C40U G42A A50C	-3.16
U14A C40U G44C C49A	-3.39
A74G A91G G93C G120C	-2.64
U92C U116C	-2.42
C11G U129C	-0.495
A103U U130G	-5.63
A50G G63A U112A G122A	-1.39
A29G A43C G122A	-4.45
C4A C11G C13A C53U G69C U81G G110A	-6.32
G45U U78A	-1.86
C70U C102G	-6.87
C62U A121G U125C	-0.0117
C13A C82U	-1.59
A18U G110U	-3.52
G10U C34A G47A	-3.85
C53U G93A A103C	-5.92
U32C G60C A75C C79G A118U G135U	-2.26
G44A A118G	-1.56
G63U C115G	-2.29
C85A C89U U92G G117A	-4.94

Variant	polymerase ribozyme fitness (log ratio)
C3G C49U C72U U131A	-4.85
G10C U106C G127A G135U	-3.46
U81C U112A U125G	-0.145
A5U G17A G69A C79U G113U	-6.54
G17U G61A C88U C104A U133A	-4.19
U38C C123A	-0.222
U78C C104A G113U	-4.71
C8A A24U G25U A43G C70G A105C U112G	-7.66
C15U A46U U54G C123A	-1.74
G57A G60U C88U C94U	-1.24
G36U C72G C102U A119U	-4.07
A6U C70U U129C	-1.04
A43U A46U	-2.27
G10A C70U	-0.224
G51A A90G G113C	-5.54
C13G C82G C102A	-4.14
C12U A29U C53G A74U	-2.34
G61C C102U G122A C124A	-3.47
C73G C82A	-1.99
C53U C64U A83G	-0.811
C13U G42U C104U	-0.915
U55G C56G U78A C99U U131A	-4.29
G45A C56U A90U	-1.57
C34A A119G	-2.03

Variant	polymerase ribozyme fitness (log ratio)
C22A A46C U131A	-4.88
C40U G69A C99A C114G	-8.02
A26U C82U	-3.73
U30G G60C C124U	-5.4
C13G C62A C82A	-3.18
C4U G36A C70A G71A A90G U112G	-6.28
G113U C114G	-2.89
A5C U112A	1.05
G19U C20U	-2.46
C88A C115G G120C C123A	0.0548
G17A G44A	-3.41
A6U C99U C115U	-7.34
C13G A74U	-2.54
G35A U59C	-4.9
C8U C11U A41G G45C G48U C73U C124A G128A	-5.7
U54C C56G U131G	-1.34
G71U A84G G120A U130G	-1.33
C82U U96A	-1.57
G61C C88A G117U	-5.25
C40U C62U C73G C85G	-5.15
C13U C15U U32G C124A	-6.8
A95U G113A G122A	-3.26
G45C C62G G93U	-5.04
G17A C89G	-3.97

Variant	polymerase ribozyme fitness (log ratio)
A26U C49U A84C C124G	-2.34
G60A C72G C101U	-1.15
C20A U129C	-3.02
U106G U130G	-1.21
G44A G51U A68G A121G	-5.63
A26U A46U C72U	-3.97
C62U G122A	-0.839
C28A C88G	-4.25
C8U G39U	0.386
C49G G60U U96G	-0.746
A74G G120C	0.921
C28U G93U U112C	-1.92
C11U G23A	-5.77
C82A G120C	-0.101
C8G U87A U96G G110U G122C U129C	-3.4
G48U U55G U112A	0.525
C56A C73U C88U U126G	-3.16
C11G U21G C53A U55C	-0.805
C13G A90G	-1.86
C28A C49U G69U G113A	-1.42
A50C G63U U81G G128C	-4.28
C62A A75G G93A	-2.34
C72U U116G	-2.57
G39U C40G C64U U106A U109A G120C	-5.69

Variant	polymerase ribozyme fitness (log ratio)
C73A G117C	-2.37
C53G A105C	-2.81
U78A C94A	-0.841
G35C U106C	-4.83
C72G C82G G93C	-1.73
C11G C64U G117C	-1.98
A46G C49A C56A A66C	-2.64
C28A G63C	-4.91
C15G A41U C56U U96C C124G	-2.08
U33G G69A	-7.83
A24U C53U	-6.23
G45C A50C	-0.909
C64U A83U A95G G127C	-2.12
C3U G44U	-1.62
G42U G69C	-2.39
C73A U116A C124A	0.809
C101A G135U	-2.11
G58C U109A C114U	-5.23
C62G C64U	-3.51
C40G C56G	-1.42
G63U C104U	-1.36
U9C C12G C53G C62U	-0.499
U55A C104A G113C G122U	-3.73
